Experimental data from patent US20250361295A1.

Legend:
[1] = target: human LILRA6 protein (human) (UniProt Q6PI73); assay: ELISA, LILRA6 protein
human LILRB4 (human) [2] = target: human LILRB4 (human) (UniProt Q8NHJ6); assay: cell-based or functional assay
hLILRB3 (human) = hLILRB3 (human) (UniProt O75022); assay: FACS; isotype control
human LILRB4 (human) [3] = target: human LILRB4 (human) (UniProt Q8NHJ6); assay: FACS
human LILRB4 (human) [4] = target: human LILRB4 (human) (UniProt Q8NHJ6); assay: competitive FACS; competition with IO-202

Isotype (hIgG1) (antibody)
ELISA(OD450) [1]: 0.152 OD450 | ADCP (%) at 133.3 nM, macrophages and MV-4-11 cells (human LILRB4 (human) [2]): 2.92% | FcγR stimulation (TNF-α, pg/mL) (human LILRB4 (human) [2]): 31.6 pg/mL | Fold change (Compared to isotype) (human LILRB4 (human) [2]): 1 fold | Max cell cytotoxicity (%), ADCC on THP-1 cells (human LILRB4 (human) [2]): 2.75%

Isotype
EC50 (hLILRB3 (human)): 42 nM

IO-202
EC50 (human LILRB4 (human) [3]): 1.31 nM | IC50 (human LILRB4 (human) [4]): 3.74 nM
